Experimental data taken from IntAct's records for PubMed 18154663.

B1: RalBP1-associated Eps domain-containing protein 2 (Homo sapiens), Q8NFH8 (parent)
chain: MEAAAAAAAAAAAAAAAGGGCGSGPPPLLLSEGEQQCYSELFARCAGAAGGGPGSGPPEAARVAPGTATAAAGPVADLFRASQLPAETLHQITELCGAKRVGYFGPTQFYIALKLIAAAQSGLPVRIESIKCELPLPRFMMSKNDGEIRFGNPAELHGTKVQIPYLTTEKNSFKRMDDEDKQQETQSPTMSPLASPPSSPPHYQRVPLSHGYSKLRSSAEQMHPAPYEARQPLVQPEGSSSGGPGTKPLRHQASLIRSFSVERELQDNSSYPDEPWRITEEQREYYVNQFRSLQPDPSSFISGSVAKNFFTKSKLSIPELSYIWELSDADCDGALTLPEFCAAFHLIVARKNGYPLPEGLPPTLQPEYLQAAFPKPKWDCQLFDSYSESLPANQQPRDLNRMEKTSVKDMADLPVPNQDVTSDDKQALKSTINEALPKDVSEDPATPKDSNSLKARPRSRSYSSTSIEEAMKRGEDPPTPPPRPQKTHSRASSLDLNKVFQPSVPATKSGLLPPPPALPPRPCPSQSEQVSEAELLPQLSRAPSQAAESSPAKKDVLYSQPPSKPIRRKFRPENQATENQEPSTAASGPASAATMKPHPTVQKQSSKQKKAIQTAIRKNKEANAVLARLNSELQQQLKEVHQERIALENQLEQLRPVTVL
partner: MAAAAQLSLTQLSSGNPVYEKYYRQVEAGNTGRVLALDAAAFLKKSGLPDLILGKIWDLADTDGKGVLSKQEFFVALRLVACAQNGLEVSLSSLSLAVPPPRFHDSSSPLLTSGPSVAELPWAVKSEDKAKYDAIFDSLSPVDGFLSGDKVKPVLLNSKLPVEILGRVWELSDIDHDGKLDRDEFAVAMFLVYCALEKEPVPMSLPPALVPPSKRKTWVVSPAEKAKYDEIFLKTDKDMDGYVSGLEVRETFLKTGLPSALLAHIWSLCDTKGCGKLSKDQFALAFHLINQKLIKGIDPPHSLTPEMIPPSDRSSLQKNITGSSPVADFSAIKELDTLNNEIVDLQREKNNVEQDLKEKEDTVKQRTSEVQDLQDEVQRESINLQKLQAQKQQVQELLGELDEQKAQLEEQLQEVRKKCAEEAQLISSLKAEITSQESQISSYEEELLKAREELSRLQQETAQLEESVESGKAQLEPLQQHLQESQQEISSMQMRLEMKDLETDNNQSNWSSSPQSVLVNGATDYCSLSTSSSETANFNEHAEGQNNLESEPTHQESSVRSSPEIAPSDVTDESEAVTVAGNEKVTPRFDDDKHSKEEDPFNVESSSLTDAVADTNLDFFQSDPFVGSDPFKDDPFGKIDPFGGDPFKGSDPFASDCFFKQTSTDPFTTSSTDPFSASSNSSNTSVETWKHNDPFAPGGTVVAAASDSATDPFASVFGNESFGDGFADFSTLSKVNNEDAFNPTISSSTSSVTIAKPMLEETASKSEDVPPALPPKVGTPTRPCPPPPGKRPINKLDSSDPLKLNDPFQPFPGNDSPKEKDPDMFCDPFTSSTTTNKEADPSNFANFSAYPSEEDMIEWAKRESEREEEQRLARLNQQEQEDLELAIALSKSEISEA

Assays:
Details in all cases: with eps15_mouse Eps15, P42567
[1] = variants of: B1
[2] = variants of: B1; remark: listed apart in the source
[3] = variants of: B1; remark: listed apart in the source
[4] = variants of: B1; remark: listed apart in the source

Row | effect of a mutation on the interaction [1] | effect of a mutation on the interaction [2] | effect of a mutation on the interaction [3] | effect of a mutation on the interaction [4] | Variant
1 | decreasing interaction | disrupting interaction | – | – | K351A
2 | – | disrupting interaction | decreasing interaction | – | K312A
3 | – | – | – | decreasing interaction | W324A
